Paper PMC3397948, “Cytoplasmic Sulfurtransferases in the Purple Sulfur Bacterium Allochromatium vinosum: Evidence for Sulfur Transfer from DsrEFH to DsrC” (PLoS ONE, 2012)

B1: DsrC from Allochromatium vinosum, wild type [Allochromatium vinosum] / DsrEFH from Allochromatium vinosum (DsrE2F2H2 heterohexamer), wild type [Allochromatium vinosum] (parent complex)
chain 1: MADTIEVDGKQFAVDEEGYLSNLNDWVPGVADVMAKQDNLELTEEHWDIINFLREYYEEYQIAPAVRVLTKAVGKKLGKEKGNSKYLYSLFPYGPAKQACRFAGLPKPTGCV
chain 2: MKFALQINEGPYQHQASDSAYQFAKAALEKGHEIFRVFFYHDGVNNSTRLTTPPQDDRHIVNRWAELAEQYELDMVVCVAAAQRRGIVDEGEASRNGKDATNIHPKFRISGLGQLVEAAIQADRLVVFGD
chain 3: MSEVVKKFMYLNRKAPYGTIYAWEALEVVLIGAAFDQDVCVLFLDDGVYQLTRGQDTKGIGMKNFSPTYRTLGDYEVRRIYVDRDSLEARGLTQDDLVEIAFEDMETEEEFDNIVEVIDSARVSELMNESDAVFSF
chain 4: MSILHTVNKSPFERNSLESCLKFATEGASVLLFEDGIYAALAGTRVESQVTEALGKLKLYVLGPDLKARGFSDERVIPGISVVDYAGFVDLTTECDTVQAWL

Variants of: B1
Test: SPR; DsrEFH immobilized; reduced analyte, 80 nM; parent: 35; read off a plot

response	Variant
~3 RU	chain 1 C111S
~31 RU	chain 1 C100S
~2.8 RU	chain 1 C100S, chain 1 C111S
